# Counter-ions that a name gives are not always drawn.
# Tests used:
# [1] = Pharmacokinetics (half-life) in guinea pigs; conditions: 0.5 μmol/kg i.v., ex-vivo plasma anti-Xa activity, compared to reference GpIIb/IIIa antagonists (XVII, XIX, XX by LC-MS/MS)
# Experimental: Guinea pigs (DH) were administered 0.5 μmol/kg (i.v.) of anticoagulant. The half-life of the pentasaccharide XXII, the “parent” of the oligosaccharide part of the conjugates, and conjugate VIII were indirectly assigned by ex-vivo determination of plasma anti-Xa activity at specific time-intervals as described above. The half-lives of the reference GPIIb/IIIa antagonists XVII, XIX and XX (see Scheme 10) were determined by measuring the plasma concentration at specific time-intervals using LC-MS/MS.
# Bovine factor Xa = assay: Determination of anti-factor Xa activity in buffer (microtiter plate method, AT-III mediated); assay type: biochemical; conditions: Kabi buffer, human AT-III
# From the text: II. Determination of Anti-Factor Xa Activity in Buffer
# (Microtiter Plate Method)
# Anticoagulants can inhibit Xa directly or, like heparin, by potentiating the inhibitory activity of AT-III. Anti-Xa activity can be assessed by determination of the rate of hydrolysis of the chromogenic substrate S-2222 in the presence of AT-III. This assay is used to determine anti-Xa activity of heparinoid preparations in Kabi buffer.
# Test medium: Kabi buffer.
# Ref. compound: International standard heparin (11.4 anti-Xa U/mg).
# Composition of the buffer: NaCl 10.17 g (174 mmol); edetate disodium dihydrate 3.26 g (9.6 mmol); tromethamine (Tris) 6.11 g (50.4 mmol); made up to 1 L with ultrapure H2O *. The pH of the solution is adjusted to 7.4 with hydrochloric acid (0.10 mol/L)
# Bovine factor Xa (Kabi Diagnostica, Stockholm, Sweden) is dissolved in Kabi buffer to give a solution containing 1.5 U/mL (0.75 nKat/mL). • 3. S-2222 solution
# S-2222 (Kabi Diagnostica) is dissolved in ultrapure H2O to give a solution containing 0.375 mg/mL (0.5 mmol/L). • 4. AT-III solution
# Human AT-III (Kabi Diagnostica) is dissolved in Kabi buffer to give a solution containing 0.25 U/mL. A fresh solution has to be prepared daily. • 5. Standard solution of the calibration sample
# Standard heparin is dissolved in Kabi buffer to give a standard solution containing approx. 0.25 anti-Xa U/mL.
# Each preparation is dissolved in ultrapure H2O and diluted with Kabi buffer to the required concentrations in the range of 0.02-0.2 anti-Xa U/mL
# Each test sample (0.05 mL) is pipetted into a well of a microtiter plate at RT. AT-III solution (0.05 mL) is added to each sample and the plate is shaken using a Vari-shaker.
# An aliquot of Xa solution (0.05 mL) is pipetted into each well 10 min following addition of AT-III solution and the plate is shaken again. Exactly 2 min following addition of Xa solution, 0.1 mL S-2222 solution is pipetted into each well and the plate is shaken again. For all additions a 12-channel pipette is used.
# The remaining amount of Xa catalyses the hydrolysis of S-2222, the rate of which is measured photometrically following incubation periods of 2 and 22 min respectively at RT. The absorbance of each sample is measured at 405 nm using a Reader Microelisa, model 310C (Organon Teknika, Oss, The Netherlands) and the increase in absorbance (ΔOD) is calculated. Each test sample is determined in duplicate. With every 10 samples, a blank (0.05 mL Kabi buffer) is included.
# From an aliquot of the standard solution of the calibration sample a range of dilutions is made (dilution factor 1,3 for heparin samples). The resulting standard samples (approx. 15 samples) should contain between 0.01-0.25 anti-Xa U/mL. […]
# For each sample the mean anti-Xa activity in U/mL is determined using the calibration curve. […]
structure (smiles),measurement,setting,value
"CO[C@H]1O[C@H](COS(=O)(=O)O)[C@@H](O[C@@H]2O[C@@H](C(=O)O)[C@@H](O[C@H]3O[C@H](COS(=O)(=O)O)[C@@H](O[C@@H]4O[C@H](C(=O)O)[C@@H](O[C@H]5O[C@H](COS(=O)(=O)O)[C@@H](OCCOCCOCCOCCNC(=O)COCCOCCOCCOCCNC(=O)[C@H](CC(=O)O)NC(=O)[C@@H]6CCCN(C(=O)CCC7CCNCC7)C6)[C@H](OC)[C@H]5OC)[C@H](OC)[C@H]4OC)[C@H](OS(=O)(=O)O)[C@H]3OS(=O)(=O)O)[C@H](OC)[C@H]2OC)[C@H](OC)[C@H]1OS(=O)(=O)O [Compound VIII, sodium salt]",half life,[1],significantly prolonged
same,Anti-Xa activity,"Bovine factor Xa; substrate S-2222, calibrated against standard heparin",605 ± 43 U/mg
same,Anti-Xa activity,"Bovine factor Xa; substrate S-2222, per nmol (from U/mg and Mw)",1.45 U/nmol

# Reference: US7576071B2, “Antithrombotic compound” (sanofi-aventis, priority 2004, dated 2009)
